Literature values as cited in patent US20240156960A1 (priority 2020, published 2024).
Read-outs that look alike come from different tables or passages of the source.

What was measured:
SARS-CoV1 [1] = test system: SARS-CoV1
SARS-CoV2 S; RBD = SARS-CoV2 S; RBD (Severe acute respiratory syndrome coronavirus 2, UniProt P0DTC2); settings: epitope S
SARS-CoV1 [2] = test system: SARS-CoV1; remark: listed apart in the source
[3] = test system: coronavirus named in the cell (SARS-CoV2, SARS-CoV1), S protein
[4] = test system: coronavirus named in the cell (SARS-CoV2, SARS-CoV1)
SARS-CoV2 = settings: source Davide Robbiani et al., 2020
SARS-CoV1 [5] = test system: SARS-CoV1; remark: listed apart in the source

B1: C118 (antibody, listed as Homo sapiens, V domains shown)
VH: QVQLVESGGGVVQPGRSLRLSCAASGFTFSNYAMHWVRQAPGKGLEWVAVISYDGSNKYYADSVKGRFTISRDNSKNTLYLQMNSLRAEDTAIYYCASGYTGYDYFVRGDYYGLDVWGQGTTVTVSS
VL: QPVLTQSPSASASLGASVKLTCTLSSGHSSYAIAWHQQQPEKGPRYLMKLNTDGSHSKGDGIPDRFSGSSSGAERYLTISSLQSEDEADYYCQTWGTGILVFGGGTKLTVL
Binds to (SARS-CoV1 [1]): SARS-CoV1, | Binds to (SARS-CoV2 S; RBD): SARS-CoV2

B2: C126 (antibody, listed as Homo sapiens, V domains shown)
VH: QVQLQESGPGLVKPSETLSLSCAVSGGSIGSYFWSWIRQPPGKGLEWIGYLHYSGSTNYNPSLKSRVTISVDTSKNQFSLKLSSVTAADTAVYYCARLQWLRGAFDIWGQGTMVTVSS
VL: NFMLTQPHSVSESPGKTVTISCTGSSGSIASNYVQWYQQRPGSAPTTVINEDNQRPSGVPDRFSGSIDSSSNSASLTISGLKTEDEADYYCQSYDSSNLVFGGGTKLTVL
Not Neutralising Vs (SARS-CoV1 [2]): SARS-CoV1, | Binds to (SARS-CoV2 S; RBD): SARS-CoV2

B3: C022 (antibody, listed as Homo sapiens, V domains shown)
VH: QVQLQESGPGLVKPSETLSVTCTVSGGSISSSRYYWGWIRQPPGKGLEWIGSIYYSGSTYYNPSLKSRVTISVDTSKNQFSLKLSSVTAADTAVYYCARHAAAYYDRSGYYFIEYFQHWGQGTLVTVSS
VL: DIQMTQSPSTLSASVGDSVTITCRASQSISSWLAWYQQKPGKAPKLLIYKASSLESGVPSRFSGSGSGTEFTLTISSLQPDDFATYYCQQYNNYRYTFGQGTKLEIK
Binds to (SARS-CoV1 [1]): SARS-CoV1, | Binds to (SARS-CoV2 S; RBD): SARS-CoV2

B4: 9A1 (antibody, listed as Homo sapiens, V domains shown)
VH: EVQLLESGGGVVQPGRSLRLSCVVSGFTFNNYGMHWVRQAPGKGLEWVAVISYEGSVKYYGDHVDGRFTISRDPFKNTLYLHMNNLRPDDTAVYYCAKVSAIFWLGQGLSPIDVWGQGTTVTVSS
VL: DIVMTQSPATLSASPGERVTLSCRASQNIRNNLAWYQQKPGQAPRLLIHGASTRAAGAPARFSGSGSDTQFTLTVSSLQSEDFAVYYCHQYSKWPVTFGGGTKVDIK
Binds to [3]: SARS-CoV2 | Not Neutralising Vs [4]: SARS-CoV2

B5: C130 (antibody, listed as Homo sapiens, V domains shown)
VH: QVQLVQSGAEVKKPGASVKVSCKASGYTFTNYYMHWVRQAPGQGLEWMGIINPSGGSTGYAQKFQGRVTMTRDTSTSTVYMELSSLRSEDTAVYYCARSRPTPDWYFDLWGRGTLVTVSS
VL: SYELTQPPSVSVAPGKTARITCGGNNIGSKSVHWYQQKPGQAPVLVIYYDSDRPSGIPERFSGSNSGNTATLTISRVEAGDEADYYCQVWDSSSDHPGVVFGGGTKLTVL
Binds to (SARS-CoV2): SARS-CoV2 | Not Neutralising Vs (SARS-CoV1 [5]): SARS-CoV1,

B6: C116 (antibody, listed as Homo sapiens, V domains shown)
VH: QVQLVESGGGVVQPGRSLRLSCAASGFTYSTYAMHWVRQAPGKGLEWVAFISYDGSNKYYADSVKGRFTISRDNSKNTLYLQMNSLRAEDTAVYYCARDFYHNWFDPWGQGTLVTVSS
VL: NFMLTQPHSVSESPGKTVTISCTGSSGSIASNYVQWYQQRPGSAPTTVIYEDNQRPSGVPDRFSGSIDRSSNSASLTISGLKTEDEADYYCQSYDSGNHWVVFGGGTRLTVL
Not Neutralising Vs (SARS-CoV1 [2]): SARS-CoV1, | Binds to (SARS-CoV2 S; RBD): SARS-CoV2

B7: C114 (antibody, listed as Homo sapiens, V domains shown)
VH: QVQLVESGGGLIQPGGSLKLSCVVSGFTVSKNYISWVRQAPGKGLEWVSVIFAGGSTFYADSVKGRFAISRDNSNNTLFLQMNSLRVEDTAIYYCARGDGELFFDQWGQGTLVTVSS
VL: QSVLTQPPSVSGAPGQRVTISCTGTSSNIGAGYDVHWYQQLPGRAPKVLISGNNIRPSEVPDRFSGSRSGTSASLAITSLQPEDEAQYYCQSYDSSLYAVFGGGTKLTVL
Not Neutralising Vs (SARS-CoV1 [2]): SARS-CoV1, | Binds to (SARS-CoV2 S; RBD): SARS-CoV2

B8: C128 (antibody, listed as Homo sapiens, V domains shown)
VH: EVQLLESGGGLVQPGGSLRLSCAASGFTFSTYAMSWVRQAPGKGLEWVSTITGSGRDTYYADSVKGRFTISRDNSKNTLFLQLNSLRAEDAAVYSCANHPLASGDDYYHYYMDVWGKGTTVTVSS
VL: EIVLTQSPGTLSLSPGERATLSCRASQSVNSRQLAWYQQKPGQAPRLLIYGASSRATGIPERFSGSGSGTDFTLTISRLESEDFAVYHCQQYGSSRALTFGGGTKVEIK
Binds to (SARS-CoV2): SARS-CoV2 | Not Neutralising Vs (SARS-CoV1 [5]): SARS-CoV1
